Experiment [1] has as its target a site on the cancer and normal cell surface (human). The experiment is described as follows: whole-cell binding assay on UISO-Mel-2 cells with 125I azurin, Scatchard analysis.
The target is the same in experiment [2]. The experiment in a line: whole-cell binding assay on UISO-Mel-2 cells, 125I azurin with or without unlabeled competitor, Scatchard analysis.

For orientation: Kd means the free concentration of one partner at which half of the binding sites on the other are occupied at equilibrium, for simple one-to-one binding. Read a low Kd as a tighter complex.

With “azurin from Pseudomonas aeruginosa (wt-azurin)”, in experiment [1], the Bmax worked out at 0.48 pm and the Kd worked out at 10 nM.
“p18, Leu50-Gly67 of Pseudomonas aeruginosa azurin (peptide)” displayed a Bmax in experiment [2] of 0.51 pm.
On the same count and under the same terms, with “p28, Leu50-Asp77 of Pseudomonas aeruginosa azurin (peptide)” the figure was 3.

The record behind these values is patent publication US20090286719A1.
